In US20160130329A1 (UNIVERSITY OF CHICAGO, published 2016):
Numbering of substitutions follows the chain as printed. Like-named read-outs stand apart in the source and are kept apart here. One block for each binder: values may come before it. Where no end group is shown, it is not given here. [ ]: non-standard residue; d: D form. Lys(Me3) = C[N+](C)(C)CCCC[C@H](N)C(=O)O

Experiments:
[1] = biological target: T1, H3K4me3 peptide (also: biotinylated, site not given here); assay: phage ELISA
T1 peptide: ART[Lys(Me3)]QTARKSTGGYCD

[2] = biological target: T1, H3K4me3 peptide; assay: yeast display of the scFv, peptide titration, flow cytometry
[3] = biological target: T1, H3K4me3 peptide; assay: as above
[4] = biological target: T2, H3K36me3 peptide (K(me3) at H3 K36; K(biotin) near the C-terminus, as printed: SAPATGGVK-K(me3)-PHRYRPGG-K(biotin)-D); assay: phage ELISA
T2 peptide: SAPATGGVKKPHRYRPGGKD

[5] = biological target: T3, H3K27me3 peptide (trimethyl-lysine at K27 (histone H3 numbering); biotinylated through the GYCD tag); assay: yeast display, flow cytometry [A]
T3 peptide: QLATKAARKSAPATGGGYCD

[6] = biological target: T1, H3K4me3 peptide; assay: yeast display, flow cytometry [A]
[7] = biological target: T4, H4K20me3 peptide (trimethyl-lysine at K20 (histone H4 numbering); biotinylated through the GYCD tag); assay: yeast display, flow cytometry [A]
T4 peptide: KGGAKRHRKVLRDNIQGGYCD

[8] = biological target: T4, H4K20me3 peptide; assay: phage ELISA [B]
[9] = biological target: T3, H3K27me3 peptide; assay: phage ELISA [B]
[10] = biological target: T3, H3K27me3 peptide; assay: yeast display, flow cytometry [B]
[11] = biological target: T2, H3K36me3 peptide; assay: yeast display, flow cytometry [B]
[12] = biological target: T1, H3K4me3 peptide; assay: yeast display, flow cytometry [B]
[13] = biological target: T4, H4K20me3 peptide; assay: phage ELISA [A]

Kd [2]: 5.1 µM
Kd [3]: 5.1 µM
B3: scFv 4-5 (scFv)
scFv: EVQLVETGGGVVQPGRSLRLSCTASGFTFRDYWMSWVRQAPGKGLEWVADIKQDGSDKYYVDAVKGRFTISRDNAKSSLYLQMNSLGAEDTAVYYCARDFSRGSGWHFDLWGRGTLVTVSSGILGSGGGGSGGGGSGGGGSSYVLTQPPSVSVAPGQTARITCGGTNIGDISVHWYQQRPGQAPLVVVYDDSDRPSGIPERFSGSNSGNTATLTISRVEAGDEADYYCQVWDDSINAYVFGTGTKVTVL
notes: also called lead antibody; scFv 4-5 polypeptide

binding result [7]: no binding (tested: 500 nM)
binding result [5]: no binding (tested: 500 nM)
binding result [6]: no binding (tested: 500 nM)
B9: 36H3 (scFv)
scFv: EVQLVETGGGVVQPGRSLRLSCTASGFTFRDYWMSWVRQAPGKGLEWVADLNKDGKYAYYLDAVKGRFTISRDNAKSSLYLQMNSLGAEDTAVYYCARDFVRGSGWHFDLWGRGTLVTVSSSYVLTQPPSVSVAPGQTARITCGGTNIGDISVHWYQQRPGQAPLVVVYDDSDRPSGIPERFSGSNSGNTATLTISRVEAGDEADYYCQVWDDSINAYVFGTGTKVTVL

binding result [8]: no binding (tested: 100 nM peptide)
B11: 4H3 (scFv)
scFv: B9 scFv with Y32N, L51I, N52A, K53E, Y57A, A58M, L61I, D99V, V101S, S104Y

binding result [5]: no binding (tested: 500 nM)
binding result [6]: no binding (tested: 500 nM)
B12: 36H5 (scFv)
scFv: B9 scFv with M34V, L51I, N52S, D54E, A58M, F100L, V101N, R102Y, S104A

binding result [8]: no binding (tested: 100 nM peptide)
binding result [9]: no binding (tested: 100 nM peptide)
B13: 4H1 (scFv)
scFv: B9 scFv with L51I, N52G, K53E, D54H, K56S, Y57F, A58S, D99N, V101S, S104Y

binding result [5]: no binding (tested: 500 nM)
binding result [6]: no binding (tested: 500 nM)
B14: 36H4 (scFv)
scFv: B9 scFv with Y32H, L51I, N52S, D54E, A58M, F100L, V101N, R102Y, S104A, L110V

binding result [10]: no binding (tested: 500 nM)
binding result [11]: no binding (tested: 500 nM)
binding result [12]: no binding (tested: 500 nM)
B15: 20H1 (scFv)
scFv: B9 scFv with Y32N, L51I, K53Q, D54N, K56R, A58F, L61I, D99A, V101Q, S104R

binding result [13]: no binding (tested: 100 nM peptide)
B16: 9H3 (scFv)
scFv: EVQLVETGGGVVQPGRSLRLSCTASGFTFRDYWMSWVRQAPGKGLEWVADISQDGESRYYVDAVKGRFTISRDNAKSSLYLQMNSLGAEDTAVYYCARDLLSGYGWHFDLWGRGTLVTVSSSYVLTQPPSVSVAPGQTARITCGGTNIGDISVHWYQQRPGQAPLVVVYDDSDRPSGIPERFSGSNSGNTATLTISRVEAGDEADYYCQVWDDSINAYVFGTGTKVTVL

binding result [5]: no binding (tested: 500 nM)
binding result [6]: no binding (tested: 500 nM)
B17: 36H2 (scFv)
scFv: B9 scFv with Y32H, L51I, N52S, D54E, A58M, F100L, V101N, R102Y, S104A

binding result [10]: no binding (tested: 500 nM)
binding result [11]: no binding (tested: 500 nM)
B18: 20H3 (scFv)
scFv: B9 scFv with L51I, N52S, K53Q, D54E, K56S, Y57W, V101P, R102H

binding result [1]: no binding (tested: 100 nM peptide)
B19: 20F87 (scFv)
scFv: EVQLVETGGGVVQPGRSLRLSCTASGFTFRDYWMSWVRQAPGKGLEWVADINPDGITRYYIDAVKGRFTISRDNAKSSLYLQMNSLGAEDTAVYYCAREFYGSWHFDLWGRGTLVTVSSSYVLTQPPSVSVAPGQTARITCGGTNISHSSGDVHWYQQRPGQAPLVVVYYSYARPSGIPERFSGSNSGNTATLTISRVEAGDEADYYCQVWDDSINAYVFGTGTKVTVL

Further lines, the binder ahead of its results:

B1: 20F78 (scFv)
scFv: EVQLVETGGGVVQPGRSLRLSCTASGFTFRDYWMSWVRQAPGKGLEWVADINPDGITRYYIDAVKGRFTISRDNAKSSLYLQMNSLGAEDTAVYYCAREFPNNYGWHFDLWGRGTLVTVSSSYVLTQPPSVSVAPGQTARITCGGTNIDHRVPVHWYQQRPGQAPLVVVYAYSSRPSGIPERFSGSNSGNTATLTISRVEAGDEADYYCQVWDDSINAYVFGTGTKVTVL
binding result [1]: no binding (tested: 100 nM peptide)

B2: 20F94 (scFv)
scFv: EVQLVETGGGVVQPGRSLRLSCTASGFTFRDYWMSWVRQAPGKGLEWVADINPDGITRYYIDAVKGRFTISRDNAKSSLYLQMNSLGAEDTAVYYCAREFPYINIWHFDLWGRGTLVTVSSSYVLTQPPSVSVAPGQTARITCGGTNIADYTTVHWYQQRPGQAPLVVVYANSARPSGIPERFSGSNSGNTATLTISRVEAGDEADYYCQVWDDSINAYVFGTGTKVTVL
binding result [1]: no binding (tested: 100 nM peptide)

B4: 20F109 (scFv)
scFv: EVQLVETGGGVVQPGRSLRLSCTASGFTFRDYWMSWVRQAPGKGLEWVADINPDGITRYYIDAVKGRFTISRDNAKSSLYLQMNSLGAEDTAVYYCAREFHPGRYDWHFDLWGRGTLVTVSSSYVLTQPPSVSVAPGQTARITCGGTNISSSSVHWYQQRPGQAPLVVVYDDNYRPSGIPERFSGSNSGNTATLTISRVEAGDEADYYCQVWDDSINAYVFGTGTKVTVL
binding result [1]: no binding (tested: 100 nM peptide)

B5: 27F40 (scFv)
scFv: EVQLVETGGGVVQPGRSLRLSCTASGFTFRDYWMSWVRQAPGKGLEWVADINPDGITRYYIDAVKGRFTISRDNAKSSLYLQMNSLGAEDTAVYYCAREFTNVYGWHFDLWGRGTLVTVSSSYVLTQPPSVSVAPGQTARITCGGTNISNTYVHWYQQRPGQAPLVVVYSSPARPSGIPERFSGSNSGNTATLTISRVEAGDEADYYCQVWDDSINAYVFGTGTKVTVL
binding result [4]: no binding (tested: 100 nM peptide)

B6: 27F52 (scFv)
scFv: B5 scFv with T101N, S149N, N150D, P172D, A173P
binding result [4]: no binding (tested: 100 nM peptide)

B7: 27F12 (scFv)
scFv: B5 scFv with V103A, S149I, N150S, S170A, S171H, P172S, A173D
binding result [4]: no binding (tested: 100 nM peptide)

B8: 36H1 (scFv)
scFv: B9 scFv with L51I, N52S, D54E, A58M, F100L, V101N, R102Y, S104A
binding result [5]: no binding (tested: 500 nM)
binding result [6]: no binding (tested: 500 nM)

B10: 4H2 (scFv)
scFv: B16 scFv with Q53K, E56S, S57A, R58S, L100F, L101V
binding result [8]: no binding (tested: 100 nM peptide)
binding result [9]: no binding (tested: 100 nM peptide)
